Measurements taken from patent publication US20170101480A1.

Molecular target: ErbB3 (human) (UniProt P21860)
Assay: cell-based or functional assay

B1: Seribantumab (antibody, INN chains, looked up, V domains shown)
VH: EVQLLESGGGLVQPGGSLRLSCAASGFTFSHYVMAWVRQAPGKGLEWVSSISSSGGWTLYADSVKGRFTISRDNSKNTLYLQMNSLRAEDTAVYYCTRGLKMATIFDYWGQGTLVTVSS
VL: QSALTQPASVSGSPGQSITISCTGTSSDVGSYNVVSWYQQHPGKAPKLIIYEVSQRPSGVSNRFSGSKSGNTASLTISGLQTEDEADYYCCSYAGSSIFVIFGGGTKVTVLG
inhibition of HRG-induced cell growth (CTG assay), OVCAR8-GFP cells: 49% | inhibition of HRG-induced cell growth (CTG assay), OVCAR-8-JMaCYT1 cells (ErbB4 overexpressing): < 20% | inhibition of HRG-induced cell growth (CTG assay), OVCAR-8-JMaCYT2 cells (ErbB4 overexpressing): < 20% | inhibition of HRG-induced cell growth (CTG assay), OVCAR-8 high ErbB4 expression clone #5: 8% | inhibition of HRG-induced cell growth (CTG assay), OVCAR-8 low ErbB4 expression clone #4: 45% | inhibition of HRG-induced cell growth (CTG assay), OVCAR-8 medium ErbB4 expression clone #9: 25% | inhibition of HRG-induced cell proliferation (CTG assay), OVCAR-8 GFP-expressing control cells, 1.25 uM seribantumab: 40.8% | inhibition of HRG-induced cell proliferation (CTG assay), OVCAR-8 parental cells, 1.25 uM seribantumab: 53.7% | inhibition of HRG-stimulated cell proliferation (CTG assay), A549 cells, 1.25 uM seribantumab, 10 nM HRG: 70% | inhibition of HRG-stimulated cell proliferation (CTG assay), OVCAR-8 cells, 1.25 uM seribantumab, 10 nM HRG: 41%
